Sequences and labels used below:
T1: Cak1p (Saccharomyces cerevisiae, UniProt P43568)
T1 sequence (P43568 1-368): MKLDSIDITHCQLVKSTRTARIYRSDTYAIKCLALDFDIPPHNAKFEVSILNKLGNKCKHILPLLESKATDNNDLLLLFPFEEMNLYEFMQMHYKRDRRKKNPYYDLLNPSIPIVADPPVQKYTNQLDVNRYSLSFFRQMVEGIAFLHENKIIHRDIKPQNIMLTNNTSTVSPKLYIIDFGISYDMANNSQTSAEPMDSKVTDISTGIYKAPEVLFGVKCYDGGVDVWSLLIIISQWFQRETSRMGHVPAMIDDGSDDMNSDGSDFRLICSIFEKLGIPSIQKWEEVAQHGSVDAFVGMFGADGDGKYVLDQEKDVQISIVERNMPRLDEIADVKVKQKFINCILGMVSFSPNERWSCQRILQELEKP

T2: budding yeast Cdc37p (budding yeast, UniProt P06101 1-506)
T2 sequence (looked up): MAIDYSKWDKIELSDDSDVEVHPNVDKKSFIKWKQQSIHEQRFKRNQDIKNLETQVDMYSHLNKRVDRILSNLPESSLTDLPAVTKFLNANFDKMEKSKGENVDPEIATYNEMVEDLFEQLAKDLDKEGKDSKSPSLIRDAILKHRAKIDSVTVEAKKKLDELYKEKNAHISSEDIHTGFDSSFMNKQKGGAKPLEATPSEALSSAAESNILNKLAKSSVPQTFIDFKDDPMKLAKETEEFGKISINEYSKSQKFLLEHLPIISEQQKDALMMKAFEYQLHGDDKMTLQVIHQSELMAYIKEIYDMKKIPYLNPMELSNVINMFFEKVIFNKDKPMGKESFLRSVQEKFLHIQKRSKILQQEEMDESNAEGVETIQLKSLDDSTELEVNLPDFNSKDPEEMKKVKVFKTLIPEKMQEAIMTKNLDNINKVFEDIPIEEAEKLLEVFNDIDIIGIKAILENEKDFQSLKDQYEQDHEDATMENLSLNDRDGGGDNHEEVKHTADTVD

B1: Cdc37 phosphorylated on Ser13 (natural protein, human, UniProt Q16543 1-378, looked up)
chain: MVDYSVWDHIEVSDDEDETHPNIDTASLFRWRHQARVERMEQFQKEKEELDRGCRECKRKVAECQRKLKELEVAEGGKAELERLQAEAQQLRKEERSWEQKLEEMRKKEKSMPWNVDTLSKDGFSKSMVNTKPEKTEEDSEEVREQKHKTFVEKYEKQIKHFGMLRRWDDSQKYLSDNVHLVCEETANYLVIWCIDLEVEEKCALMEQVAHQTIVMQFILELAKSLKVDPRACFRQFFTKIKTADRQYMEGFNDELEAFKERVRGRAKLRIEKAMKEYEEEERKKRLGPGGLDPVEVYESLPEELQKCFDVKDVQMLQDAISKMDPTDAKYHMQRCIDSGLWVPNSKASEAKEGEEAGPGDPLLEAVPKTGDEKDVSV
modifications: phosphoserine at 13
B2: Cdc37 (human, full length), bacterially expressed (natural protein, UniProt Q16543 1-378, looked up)
chain: B1 chain
B3: BRaf kinase domain (wild-type, native; amino acids 433-726), Sf9 (domain or fragment, human, UniProt P15056 433-726, looked up)
chain: EDRNRMKTLGRRDSSDDWEIPDGQITVGQRIGSGSFGTVYKGKWHGDVAVKMLNVTAPTPQQLQAFKNEVGVLRKTRHVNILLFMGYSTKPQLAIVTQWCEGSSLYHHLHIIETKFEMIKLIDIARQTAQGMDYLHAKSIIHRDLKSNNIFLHEDLTVKIGDFGLATVKSRWSGSHQFEQLSGSILWMAPEVIRMQDKNPYSFQSDVYAFGIVLYELMTGQLPYSNINNRDQIIFMVGRGYLSPDLSKVRSNCPKAMKRLMAECLKKKRDERPLFPQILASIELLARSLPKIHR
B4: Cak1p, cyclin-dependent kinase activating kinase from budding yeast (enzyme, UniProt P43568 1-368, looked up)
chain: T1 sequence (P43568 1-368)

One test concerns the target T1, Cak1p. The test is described as follows: isothermal titration calorimetry. Format: binding.
Test [1] addresses Cdc37 (human, full length), bacterially expressed (human) (UniProt Q16543). The test can be described thus: ITC.
The target of test [2] is T3, Hsp90β, bacterially expressed (human, UniProt P08238 1-724). The test can be described thus: SEC.
For test [3], the target named is T3, Hsp90β, bacterially expressed. The test can be described thus: SEC. The source holds these as a separate data set.
Test [4] deals with B2. The test can be described thus: SEC.
For a further test, the target named is T2, budding yeast Cdc37p. The test is described as follows: SEC.

Read-outs that look alike come from different tables or passages of the source.

T3 sequence (P08238 whole entry): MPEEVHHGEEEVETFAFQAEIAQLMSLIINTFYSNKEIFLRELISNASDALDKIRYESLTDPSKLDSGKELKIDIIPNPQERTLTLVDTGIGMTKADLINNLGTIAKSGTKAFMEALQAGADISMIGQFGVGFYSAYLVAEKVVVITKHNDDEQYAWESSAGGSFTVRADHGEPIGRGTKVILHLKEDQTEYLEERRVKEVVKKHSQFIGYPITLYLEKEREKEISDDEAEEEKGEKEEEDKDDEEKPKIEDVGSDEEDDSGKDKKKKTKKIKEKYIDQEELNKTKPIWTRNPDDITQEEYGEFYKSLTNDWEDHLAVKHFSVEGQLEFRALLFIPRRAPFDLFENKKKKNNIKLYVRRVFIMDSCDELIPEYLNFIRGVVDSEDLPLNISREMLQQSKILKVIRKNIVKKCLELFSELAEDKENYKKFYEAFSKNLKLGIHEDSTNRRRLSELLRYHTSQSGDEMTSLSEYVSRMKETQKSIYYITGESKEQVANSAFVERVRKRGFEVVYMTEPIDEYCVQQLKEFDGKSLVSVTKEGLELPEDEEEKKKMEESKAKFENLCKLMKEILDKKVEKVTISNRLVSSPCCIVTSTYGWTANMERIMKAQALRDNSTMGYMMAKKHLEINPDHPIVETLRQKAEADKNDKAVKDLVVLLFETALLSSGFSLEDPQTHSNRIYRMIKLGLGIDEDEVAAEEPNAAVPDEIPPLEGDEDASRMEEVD

For the molecule `NC1=N/C(=C2/CCNC(=O)c3[nH]ccc32)C(=O)N1` [debromohymenialdisine], the Kd on Cak1p is approximately 1700 nM.

For the molecule “solubilised BRaf V600E kinase domain (sBRafV600E), bacterially expressed (from UniProt P15056 457-717) (domain or fragment)”, the Kd in test [1] is 200 nM. For the molecule B1, the binding result in test [2] is listed as “binds”.

On to B2, for which the binding result in test [3] is “binds”. Regarding B3, the binding result in test [4] is on record as “binds”. With B4, the binding result with budding yeast Cdc37p was “binds”.

For the origin of these results see paper PMC5695660 (Nature chemical biology, 2013).
